In publication PMC4399498 (Nature communications, 2014) one finds Kd data, which are given here for one molecule.

In one data set the target is T1, KdpE-E216A (Escherichia coli, UniProt P21866 1-225, E216A).
T1 sequence: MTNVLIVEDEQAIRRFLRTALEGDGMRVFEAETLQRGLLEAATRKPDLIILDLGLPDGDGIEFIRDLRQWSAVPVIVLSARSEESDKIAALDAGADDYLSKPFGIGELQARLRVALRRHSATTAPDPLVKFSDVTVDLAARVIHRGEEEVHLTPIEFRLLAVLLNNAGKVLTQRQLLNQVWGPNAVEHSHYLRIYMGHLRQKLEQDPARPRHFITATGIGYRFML
As to the kind of experiment: fluorescence anisotropy. For orientation: Polarisation of emitted light reports the rotation of a fluorescent probe.

In the next data set the target is T2, KdpE (Escherichia coli, UniProt P21866 1-225).
T2 sequence: T1 sequence with A216E
As to the kind of experiment: fluorescence anisotropy.

Where a chain is given by its changes, count along the chain named.

B1: 24-bp KdpE site DNA, TAMRA (anisotropy) (dsDNA)
DNA 1: CATTTTTATACTTTTTTTACACCC
DNA 2: GGGTGTAAAAAAAGTATAAAAATG
Regarding B1, the Kd in the data set with KdpE-E216A was determined as 3.5 ± 0.5 nM; with KdpE, 30 ± 4 nM.

In general, Kd refers to a measure of binding affinity in units of concentration. A high value points to a looser complex.
